Molecular target: Alexa Fluor 488 labeled α-synuclein (UniProt P37840)
Experiment: MST; apparent; constant 50 nM αS-AF488, dilution series of 16 HSA concentrations (50 μM to 6.25 nM); 10 mM Na2HPO4, 1.8 mM KH2PO4, 137 mM NaCl, 2.7 mM KCl, pH 7.4; Monolith NT.115, LED power 20%, MST power 20, 40 and 80%, data normalised and averaged

Kd: 300 nM
Substance: human serum albumin (from UniProt P02768 25-609) (natural protein)
